# Patent US20020119521A1
# T1: B42AD:MmRXR-DEF fusion (Mus musculus)
# T1 sequence: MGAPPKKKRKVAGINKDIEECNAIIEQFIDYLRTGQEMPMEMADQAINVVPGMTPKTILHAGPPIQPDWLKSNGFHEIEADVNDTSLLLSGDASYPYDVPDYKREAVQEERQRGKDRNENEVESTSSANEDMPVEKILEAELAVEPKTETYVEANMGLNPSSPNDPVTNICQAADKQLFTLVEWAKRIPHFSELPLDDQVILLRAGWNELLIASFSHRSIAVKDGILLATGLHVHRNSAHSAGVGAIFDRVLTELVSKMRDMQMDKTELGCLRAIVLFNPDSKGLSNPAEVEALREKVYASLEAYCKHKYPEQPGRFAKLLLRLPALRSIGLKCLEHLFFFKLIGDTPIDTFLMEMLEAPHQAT
# Experiments:
# Test in all cases: cell-based or functional assay
# [1] = biological target: Full length MmRXR (mouse Mus musculus RXR alpha) (Mus musculus) (UniProt P28700)
# [2] = biological target: VP16AD-CfUSPDEF chimeric polypeptide (Choristoneura fumiferana)
# [3] = biological target: VP16AD-MmRXRDEF chimeric polypeptide (Mus musculus)
# [4] = biological target: VP16AD-CfEcRCDEF chimeric polypeptide (Choristoneura fumiferana)
# [5] = biological target: VP16AD-DmEcRCDEF chimeric polypeptide (Drosophila melanogaster)
# [6] = biological target: T1, B42AD:MmRXR-DEF fusion (Mus musculus)
molecule,measurement,setting,value
"Drosophila melanogaster EcR with a modified DNABD fused to VP16AD (DmVgRXR system, Invitrogen) (receptor)","Mean Fold Activation Through N-(2-ethyl-3-methoxybenzoyl)-N'-(3,5-dimethylbenzoyl)-N'-t-butylhydrazine; pIND(SP1)LacZ reporter, 3T3 cells",[1],21 fold
same,"Mean Fold Activation Through N-(2-ethyl-3-methoxybenzoyl)-N'-(3,5-dimethylbenzoyl)-N'-t-butylhydrazine; pIND(SP1)LacZ reporter, 293 cells",[1],21 fold
same,"Mean Fold Activation with 50 µM N-(2-ethyl-3-methoxybenzoyl)-N'-(3,5-dimethylbenzoyl)-N'-t-butylhydrazine; pIND(SP1)LacZ reporter, CHO cells",[1],14 fold
Gal4DBD-CfEcRDEF chimeric polypeptide (receptor),"Mean Fold Activation Through N-(2-ethyl-3-methoxybenzoyl)-N'-(3,5-dimethylbenzoyl)-N'-t-butylhydrazine; pGAL4RELuc reporter, 3T3 cells",[2],2 fold
same,"Mean Fold Activation Through N-(2-ethyl-3-methoxybenzoyl)-N'-(3,5-dimethylbenzoyl)-N'-t-butylhydrazine; pGAL4RELuc reporter, 293 cells",[2],2 fold
same,"Mean Fold Activation with 50 µM N-(2-ethyl-3-methoxybenzoyl)-N'-(3,5-dimethylbenzoyl)-N'-t-butylhydrazine; pGAL4RELuc reporter, CHO cells",[2],2 fold
same,"Mean Fold Activation Through N-(2-ethyl-3-methoxybenzoyl)-N'-(3,5-dimethylbenzoyl)-N'-t-butylhydrazine; pGAL4RELuc reporter, 3T3 cells",[3],1120 fold
same,"Mean Fold Activation Through N-(2-ethyl-3-methoxybenzoyl)-N'-(3,5-dimethylbenzoyl)-N'-t-butylhydrazine; pGAL4RELuc reporter, 293 cells",[3],125 fold
same,"Mean Fold Activation with 50 µM N-(2-ethyl-3-methoxybenzoyl)-N'-(3,5-dimethylbenzoyl)-N'-t-butylhydrazine; pGAL4RELuc reporter, CHO cells",[3],267 fold
same,Mean Fold Induction at 1.0 µM Concentration of Muristerone A; switch 1.1 in 3T3 cells,[3],1 fold
same,"Mean Fold Induction at 1.0 µM Concentration of N'-(3,4-(1,2-ethylenedioxy)-2-methylbenzoyl)-N'-(3,5-dimethylbenzoyl)-N'-tert-butylhydrazine; switch 1.1 in 3T3 cells",[3],601 fold
same,"Mean Fold Induction at 1.0 µM Concentration of N-(2-ethyl-3-methoxybenzoyl)-N'-(3,5-dimethylbenzoyl)-N'-tert-butylhydrazine; switch 1.1 in 3T3 cells",[3],116 fold
same,Mean Fold Induction at 1.0 µM Concentration of Ponasterone A; switch 1.1 in 3T3 cells,[3],1 fold
same,ligand concentration at which transactivation was initiated (non-steroid ligands),[3],< 1 µM
same,ligand concentration at which transactivation was initiated (steroid ligands),[3],50 µM
Gal4DBD-CfUSPDEF chimeric polypeptide (receptor),"Mean Fold Activation Through N-(2-ethyl-3-methoxybenzoyl)-N'-(3,5-dimethylbenzoyl)-N'-t-butylhydrazine; pGAL4RELuc reporter, 3T3 cells",[4],3 fold
same,"Mean Fold Activation Through N-(2-ethyl-3-methoxybenzoyl)-N'-(3,5-dimethylbenzoyl)-N'-t-butylhydrazine; pGAL4RELuc reporter, 293 cells",[4],2 fold
same,"Mean Fold Activation with 50 µM N-(2-ethyl-3-methoxybenzoyl)-N'-(3,5-dimethylbenzoyl)-N'-t-butylhydrazine; pGAL4RELuc reporter, CHO cells",[4],2 fold
Gal4DBD-MmRXRDEF chimeric polypeptide (receptor),"Mean Fold Activation Through N-(2-ethyl-3-methoxybenzoyl)-N'-(3,5-dimethylbenzoyl)-N'-t-butylhydrazine; pGAL4RELuc reporter, 3T3 cells",[5],269 fold
same,"Mean Fold Activation Through N-(2-ethyl-3-methoxybenzoyl)-N'-(3,5-dimethylbenzoyl)-N'-t-butylhydrazine; pGAL4RELuc reporter, 293 cells",[5],3 fold
same,"Mean Fold Activation with 50 µM N-(2-ethyl-3-methoxybenzoyl)-N'-(3,5-dimethylbenzoyl)-N'-t-butylhydrazine; pGAL4RELuc reporter, CHO cells",[5],312 fold
same,"Mean Fold Activation Through N-(2-ethyl-3-methoxybenzoyl)-N'-(3,5-dimethylbenzoyl)-N'-t-butylhydrazine; pGAL4RELuc reporter, 3T3 cells",[4],47 fold
same,"Mean Fold Activation Through N-(2-ethyl-3-methoxybenzoyl)-N'-(3,5-dimethylbenzoyl)-N'-t-butylhydrazine; pGAL4RELuc reporter, 293 cells",[4],17 fold
same,"Mean Fold Activation with 50 µM N-(2-ethyl-3-methoxybenzoyl)-N'-(3,5-dimethylbenzoyl)-N'-t-butylhydrazine; pGAL4RELuc reporter, CHO cells",[4],85 fold
same,Mean Fold Induction at 1.0 µM Concentration of Muristerone A; switch 1.3 in 3T3 cells,[4],1 fold
same,"Mean Fold Induction at 1.0 µM Concentration of N'-(3,4-(1,2-ethylenedioxy)-2-methylbenzoyl)-N'-(3,5-dimethylbenzoyl)-N'-tert-butylhydrazine; switch 1.3 in 3T3 cells",[4],54 fold
same,"Mean Fold Induction at 1.0 µM Concentration of N-(2-ethyl-3-methoxybenzoyl)-N'-3,5-dimethylbenzoyl)-N'-tert-butylhydrazine; switch 1.3 in 3T3 cells",[4],71 fold
same,Mean Fold Induction at 1.0 µM Concentration of Ponasterone A; switch 1.3 in 3T3 cells,[4],1 fold
"Truncated CfEcR comprising a partial A/B domain and the complete CDEF domains, fused to VP16AD (CfVgRXR) (receptor)","Mean Fold Activation Through N-(2-ethyl-3-methoxybenzoyl)-N'-(3,5-dimethylbenzoyl)-N'-t-butylhydrazine; pIND(SP1)LacZ reporter, 3T3 cells",[1],19 fold
same,"Mean Fold Activation Through N-(2-ethyl-3-methoxybenzoyl)-N'-(3,5-dimethylbenzoyl)-N'-t-butylhydrazine; pIND(SP1)LacZ reporter, 293 cells",[1],12 fold
same,"Mean Fold Activation with 50 µM N-(2-ethyl-3-methoxybenzoyl)-N'-(3,5-dimethylbenzoyl)-N'-t-butylhydrazine; pIND(SP1)LacZ reporter, CHO cells",[1],27 fold
LexA:CfEcRDEF fusion (receptor) MKALTARQQEVFDLIRDHISQTGMPPTRAEIAQRLGFRSPNAAEEHLKALARKGVIEIVSGASRGIRLLQEEEEGLPLVGRVAAGEPLLAQQHIEGHYQVDPSLFKPNADFLLRVSGMSMKDIGIMDGDLLAVHKTQDVRNGQVVVARIDDEVTVKRLKKQGNKVELLPENSEFKPIVVDLRQQSFTIEGLAVGVIRNGDWLPECVVPETQCAMKRKEKKAQKEKDKLPVSTTTVDDHMPPIMQCEPPPPEAARIHEVVPRFLSDKLLETNRQKNIPQLTANQQFLIARLIWYQDGYEQPSDEDLKRITQTWQQADDENEESDTPFRQITEMTILTVQLIVEFAKGLPGFAKISQPDQITLLKACSSEVMMLRVARRYDAASDSVLFANNQAYTRDNYRKAGMAYVIEDLLHFCRCMYSMALDNIHYALLTAVVIFSDRPGLEQPQLVEEIQRYYLNTLRIYILNQLSGSARSSVIYGKILSILSELRTLGMQNSNMCISLKLKNRKLPPFLEEIWDVADMSHTQPPPILESPTNL,fold induction of the LacZ reporter in a yeast two-hybrid assay with GS-E,[6],1800 fold
